What was measured:
Format in all cases: biochemical
[1] = HTP screening assay of LeuB variants, 3-IPM; details: 750 μM 3-IPM, 2 mM NAD+, pH 8.0, 25° C.; mean of duplicates
Protocol: (§1) The evaluation of the LeuB variants is performed in two steps using the high-throughput enzyme assay described below. Initially, all of the variants are screened for activity against a single high concentration of 3-IPM, 3-BM and 3-HM. Following the initial evaluation, detailed kinetic analysis is performed on a select number of variants to determine the maximal rate (kcat), Michaelis-Menten constant (KM), and the catalytic efficiency of the variant enzymes (kcat/KM).
(§2) A suitable spectrophotometric LeuB enzyme assay is adapted into a high-throughput format in 96-well plates for the kinetic evaluation of LeuB and its variants (shown in Table 1) against 3-isopropylmalate (3-IPM), 3-butylmalate (3-BM), and 3-hexylmalate (3-HM). See, for example, Hsu, Y.; Kohlhaw, G. B. “Leucine biosynthesis in Saccharomyces cerevisiae. Purification and characterization of beta-isopropylmalate dehydrogenase,” J. Biol. Chem., 1980, 255:7255-7260. Steady state kinetic parameters (kcat, KM and kcat/KM) for the oxidative decarboxylation of the three substrates by the variants are determined in these experiments.
(§3) The HTP screening assay involves incubating 750 micromoles (μM) of 3-IPM, 1 mM 3-BM or 1 mM 3-HM, with 2 mM nicotinamide adenine dinucleotide (NAD^+) in LeuB assay buffer (50 mM 4-(2-hydroxyethyl) piperazine-1-ethanesulfonic acid (HEPES), pH 8.0, containing 30 mM potassium chloride (KCl) and 5 mM magnesium chloride (MgCl2)) at 25° C. The reaction is started by the addition at 25° C. of working enzyme stock containing from 0.3 microgram (μg) to 1.1 μg of LeuB variant diluted in assay buffer containing 1 mM DTT and 1 milligram per milliliter (mg/mL) bovine serum albumin (BSA). The plate containing the 200 μL of reaction mixture is centrifuged at 2500×g for 15 seconds (sec) and the absorbance change of the reaction mixture is followed spectrophotometrically at 340 nm on a BioTek™ plate reader, pre-equilibrated at 25° C. Initial velocity of the enzyme reaction is calculated from the rate of NADH production at 340 nm and using the extinction coefficient of NADH (6.22 per millimolar per centimeter (mM^−1cm^−1)). The activity of all the variants is normalized with the amount of enzyme present in the reaction mixture and expressed as nanomoles per minute per microgram (nmol·min^−1·μg^−1) (Table 2). Protein concentrations for normalizing the activities are determined using the 660 nm total protein assay kit acquired from Pierce Biotechnology Inc.™, available from Thermo Fisher Scientific, Inc., and using BSA as the standard.

[2] = HTP screening assay of LeuB variants, 3-HM; details: for Specific activity, 3-HM: 1 mM 3-HM, 2 mM NAD+, pH 8.0, 25° C., mean of duplicates; for activity against 3-HM compared with the wild type enzyme: screening at single high concentration
Protocol: as §1, §2, §3

[3] = HTP LeuB kinetic assay, oxidative decarboxylation of 3-IPM; details: for decrease in efficiency of capturing 3-IPM compared with the wild type enzyme: less efficient than wild type LeuB; for Km / kcat: substrate 3-IPM, mean ± S.D.
Protocol: as §1, §2
(§4) The HTP kinetic assay involves incubating eight varied concentrations, of 3-IPM (from 0 to 1.2 mM) or 3-BM (from 0 to 2 mM) or 3-HM (from 0 to 2 mM), with 2 mM NAD^+ in LeuB assay buffer (50 mM HEPES, pH 8.0, containing 30 mM KCl and 5 mM MgCl2) at 25° C. The reaction is started by adding from 0.008 μg to 0.5 μg of LeuB variant which has been pre-diluted in assay buffer containing 1 mM DTT and 1 mg/mL BSA. The plate containing the 200 μl of reaction mixture is centrifuged at 2500×g for 15 sec and the absorbance change is followed spectrophotometrically at 340 nm on a BioTek™ plate reader maintained at 25° C. Initial velocity of the enzyme reaction is calculated from the rate of NADH production at 340 nm and using the extinction coefficient of NADH (6.22 mM^−1cm^−1). The kinetic parameters (kcat, KM and kcat/KM) of oxidative decarboxylation of 3-alkylmalate are determined by fitting the data to the Michaelis-Menten equation using nonlinear regression performed using the GraphPad Prism™ software. Table 3 lists the kinetic parameters of the wild type and engineered variants against the three substrates. The amount of enzyme in the reaction mixture is determined using the 660 nm total protein assay kit acquired from Pierce Biotechnology Inc.™, using BSA as the standard.

[4] = HTP LeuB kinetic assay, oxidative decarboxylation of 3-BM; details: for Km / kcat: substrate 3-BM, mean ± S.D.
Protocol: as §1, §2, §4

[5] = HTP screening assay of LeuB variants, 3-BM; details: 1 mM 3-BM, 2 mM NAD+, pH 8.0, 25° C.; mean of duplicates
Protocol: as §1, §2, §3

[6] = HTP LeuB kinetic assay, oxidative decarboxylation of 3-HM; details: for Km / kcat: substrate 3-HM, mean ± S.D.
Protocol: as §1, §2, §4

B1: L96A: E. coli isopropylmalate dehydrogenase (LeuB) with Leu-96 replaced with alanine (protein, UniProt P30125 2-363, looked up, variant L96A)
3-isopropylmalate …: SKNYHIAVLPGDGIGPEVMTQALKVLDAVRNRFAMRITTSHYDVGGAAIDNHGQPLPPATVEGCEQADAVLFGSVGGPKWEHLPPDQQPERGALAPLRKHFKLFSNLRPAKLYQGLEAFCPLRADIAANGFDILCVRELTGGIYFGQPKGREGSGQYEKAFDTEVYHRFEIERIARIAFESARKRRHKVTSIDKANVLQSSILWREIVNEIATEYPDVELAHMYIDNATMQLIKDPSQFDVLLCSNLFGDILSDECAMITGSMGMLPSASLNEQGFGLYEPAGGSAPDIAGKNIANPIAQILSLALLLRYSLDADDAACAIERAINRALEEGIRTGDLARGAAAVSTDEMGDIIARYVAEGV
[1]
  Specific activity, 3-IPM: 15.4 nmol/min/µg
[2]
  Specific activity, 3-HM: 0.77 nmol/min/µg
  activity against 3-HM compared with the wild type enzyme: higher activity than the wild type enzyme
[3]
  decrease in efficiency of capturing 3-IPM compared with the wild type enzyme: approximately 4 fold
  Km: 16 ± 10 µM
  kcat: 11.1 ± 2.57 s⁻¹
[4]; in words
  efficiency of capturing 3-BM compared with the wild type enzyme: modestly poor
[4]
  Km: 130 ± 20 µM
  kcat: 7 ± 0.367 s⁻¹
[5]
  Specific activity, 3-BM: 9.48 nmol/min/µg
[6]
  Km: 240 ± 40 µM
  kcat: 0.683 ± 0.0083 s⁻¹

B2: Wild type LeuB: native E. coli LeuB (isopropylmalate dehydrogenase), SEQ ID 2, histidine-tagged (protein, UniProt P30125 2-363, looked up)
3-isopropylmalate …: SKNYHIAVLPGDGIGPEVMTQALKVLDAVRNRFAMRITTSHYDVGGAAIDNHGQPLPPATVEGCEQADAVLFGSVGGPKWEHLPPDQQPERGALLPLRKHFKLFSNLRPAKLYQGLEAFCPLRADIAANGFDILCVRELTGGIYFGQPKGREGSGQYEKAFDTEVYHRFEIERIARIAFESARKRRHKVTSIDKANVLQSSILWREIVNEIATEYPDVELAHMYIDNATMQLIKDPSQFDVLLCSNLFGDILSDECAMITGSMGMLPSASLNEQGFGLYEPAGGSAPDIAGKNIANPIAQILSLALLLRYSLDADDAACAIERAINRALEEGIRTGDLARGAAAVSTDEMGDIIARYVAEGV
[1]
  Specific activity, 3-IPM: 18.3 nmol/min/µg
[2]
  Specific activity, 3-HM: 0.68 nmol/min/µg
[3]; higher for 3-IPM than for 3-HM
  catalytic efficiency for 3-IPM relative to that for 3-HM: 1,000 fold
[3]
  Km: 9 ± 3 µM
  kcat: 23.92 ± 2.02 s⁻¹
[4]
  Km: 38 ± 13 µM
  kcat: 3.65 ± 0.333 s⁻¹
[5]
  Specific activity, 3-BM: 4.3 nmol/min/µg
[6]
  Km: 160 ± 20 µM
  kcat: 0.433 ± 0.033 s⁻¹

B3: L96G: E. coli LeuB variant with Leu-96 replaced with glycine (protein, UniProt P30125 2-363, looked up, variant L96G)
3-isopropylmalate …: SKNYHIAVLPGDGIGPEVMTQALKVLDAVRNRFAMRITTSHYDVGGAAIDNHGQPLPPATVEGCEQADAVLFGSVGGPKWEHLPPDQQPERGALGPLRKHFKLFSNLRPAKLYQGLEAFCPLRADIAANGFDILCVRELTGGIYFGQPKGREGSGQYEKAFDTEVYHRFEIERIARIAFESARKRRHKVTSIDKANVLQSSILWREIVNEIATEYPDVELAHMYIDNATMQLIKDPSQFDVLLCSNLFGDILSDECAMITGSMGMLPSASLNEQGFGLYEPAGGSAPDIAGKNIANPIAQILSLALLLRYSLDADDAACAIERAINRALEEGIRTGDLARGAAAVSTDEMGDIIARYVAEGV
[1]
  Specific activity, 3-IPM: 2.90 nmol/min/µg
[2]
  Specific activity, 3-HM: 9.5 nmol/min/µg
  activity against 3-HM compared with the wild type enzyme: higher activity than the wild type enzyme
[3]
  decrease in efficiency of capturing 3-IPM compared with the wild type enzyme: 100 fold
[4]
  Km: 1900 ± 200 µM
  kcat: 3.12 ± 0.1 s⁻¹
[5]
  Specific activity, 3-BM: 1.5 nmol/min/µg
[6]; more efficient than wild type LeuB
  increase in efficiency of capturing 3-HM compared with the wild type enzyme: 80 fold
[6]
  Km: 30 ± 3 µM
  kcat: 7.58 ± 0.167 s⁻¹
